Results as given in the supplement of paper PMC10567573.

B1: ALDH8A1 (parent)
chain: FTGSQPTAERITQLSAPHCKKLSL
B2: KLHL13 (parent)
chain: TGEFLKLPFERLAFVLSSNSLKHC

Variants of: B1
Experiment: protein stability index of a GFP-peptide fusion (GPS, HEK-293T) (PSI 1-6); higher = more stable
Settings: c terminus: a fixed tail appended
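Note: lentivirally expressed fusions sorted by FACS into six bins by GFP to DsRed ratio, PSI derived from sequencing read proportions per bin multiplied by bin number.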

Variant	protein stability index
F1E	4.26
F1H	4.18
F1K	3.96
F1I	3.86
F1G	4.34
F1A	4.03
F1C	3.48
F1D	4.38
F1L	3.65

Variants of: B2
Experiment: as above
Settings: c terminus: a fixed tail appended

Variant	protein stability index
P8C	1.84
P8Q	1.41
P8T	3.92
P8N	2.66
P8D	1.58
P8M	3.97
P8Y	4.25
S17P	1.7
S17Y	2.46
S17N	2.33
S17Q	1.72
S17K	1.05
S17C	5.02
S17L	2.06
S17D	1.06
S17R	2.82
S17E	1.86
S17I	1.71
S17M	2.2
S17A	3.79
S17W	3.66
S18K	3.09
S18C	3.11
S18V	4.13
S18L	3.02

Variant	protein stability index
S18H	2.48
S18N	1.98
S18F	2.48
S18A	1.35
S18D	2.42
S18Q	1.61
S18W	2.81
S18E	2.37
S18Y	2.79
S18P	2.64
K22P	3.24
K22G	2.18
K22M	3.25
K22L	3.44
K22C	4.71
K22Q	4.87
K22E	2.2
K22T	2.34
K22W	3.33
K22I	2.96
K22N	4.57
K22D	2.77
K22Y	1.96
K22S	4.04
K22R	2.48

Variant	protein stability index
K22V	3.78
K22A	2.4
F9W	3.18
F9V	2.23
F9M	3.01
F9I	3.04
F9S	2.07
F9R	1.65
F9D	2.04
F9Y	2.7
F9N	1.8
F9P	2.04
F9L	3.5
F9H	1.71
F9A	2.33
F9K	2.56
F9E	2.22
F9Q	2.6
F9T	1.65
F9C	1.82
F9G	2.18
F4D	1.55
F4N	1.48
F4R	1.13
F4E	1.42

Variant	protein stability index
F4W	2.03
F4S	3.3
F4I	1.31
F4A	2.92
F4G	1.45
F4Y	2.4
F4P	1.62
F4K	1.78
G2F	3.56
G2H	3.72
G2N	2.52
G2I	4.78
G2K	2.12
S20R	1.87
S20C	3.52
S20M	3.42
S20K	2.43
S20L	3.05
S20F	2.55
S20D	2.29
S20P	2.4
S20G	2.59
S20I	2.7
S20H	1.49
S20N	3.25

Variant	protein stability index
S20T	2.98
S20E	2.34
R11V	3.99
R11N	3.3
R11Y	4.43
R11K	3.47
R11A	3.93
R11M	3.39
R11E	2.48
R11F	3.1
R11H	1.62
R11G	2.54
R11C	2.12
R11D	2.08
R11T	4.01
R11Q	3.1
R11S	3.23
R11W	2.11
R11P	3.17
L5A	1.6
L5Q	2.06
L5C	2.26
L5N	1.52
L5R	2.16
L5E	1.72

Variant	protein stability index
L5D	2.48
L5K	1.85
L5H	1.78
L5Y	1.8
L5T	2.54
E3Y	3.14
E3V	2.28
E3Q	4.44
E3H	2.67
E3G	4.77
E3D	3.15
E3R	2.35
E3A	2.21
E3T	1
E3P	2.66
E3N	5.52
L7K	1.86
L7I	3.09
L7D	1.25
L7P	2.87
L7A	1.73
L7W	4.29
L7E	1.08
L7Q	1.19
L7T	3.88

Variant	protein stability index
C24G	1.9
C24W	1.03
C24E	1.81
C24I	4.16
C24A	1.75
C24D	2.13
C24S	1.76
C24R	2.4
C24H	2.56
C24V	2.76
C24T	2.1
C24Y	3.19
C24F	3.88
C24N	2.94
C24L	2.62
C24Q	1.6
C24K	1.61
C24M	2.65
K6T	2.73
K6I	2.34
K6S	3.28
K6L	3.24
K6C	2.54
K6P	2.01
K6D	1.38

Variant	protein stability index
K6A	3.83
L12A	1.99
L12H	2.27
L12P	1.77
L12T	1.53
L12E	1.96
L12R	2.35
L12Q	2.11
L12Y	1.76
L12G	2.83
L12M	3.48
L12F	3.73
L12V	1.44
L12N	2.15
L12D	2.38
L12K	2.12
L12S	1.92
L12C	3.25
L21M	3.88
L21G	1.75
L21N	1.88
L21D	2.79
L21A	2.92
L21R	1.63
L21K	1.26

Variant	protein stability index
L21I	3.4
L21C	3.31
L21H	2.14
L21S	1.44
L21V	1.72
L21Q	1.91
L21E	2.45
L21F	1.42
L21T	2.49
L21P	2.39
L21Y	2.33
H23V	2.8
H23C	2.87
H23K	2.49
H23W	1.88
H23R	1.99
H23S	4.04
H23Y	3.32
H23P	1.85
H23T	2.17
H23N	2.42
H23D	2.27
H23Q	4.44
H23M	2.02
A13T	2.76

Variant	protein stability index
A13C	2.41
A13S	1.99
A13H	1.72
A13P	3.04
A13Q	2.26
A13I	3.35
A13K	1.98
A13D	2.08
A13M	3.12
A13Y	3.93
A13G	1.6
A13R	1.85
A13N	1.93
A13E	1.71
A13F	1.67
L16I	2.89
L16S	2.68
L16H	1.89
L16V	3.18
L16W	2.23
L16E	2.42
L16P	2.33
L16Y	1.93
L16D	2.37
L16M	2.25

Variant	protein stability index
L16Q	2.24
L16A	1.74
L16R	2.21
L16G	2.23
L16N	2.93
L16K	2.65
L16C	1.39
L16T	1.75
F14Y	2.36
F14P	2.69
F14V	1.13
F14L	2.31
F14D	1.98
F14E	2.33
F14G	2.54
F14N	2.33
F14W	3.04
F14T	2.21
F14S	2.21
F14K	1.79
F14A	1.42
F14H	1.8
F14C	1.95
F14M	2.74
F14R	1.4

Variant	protein stability index
F14Q	1.66
V15Q	2.31
V15W	3.3
V15K	1.81
V15D	1.82
V15M	1.96
V15G	3.31
V15E	1.78
V15L	3.05
V15T	1.59
V15R	1.53
V15F	2.39
V15P	2.53
V15S	2.32
V15N	1.95
V15H	2.27
V15C	2.21
V15I	2
V15Y	1.06
V15A	1.84
E10W	3.59
E10Y	3.3
E10D	3.16
E10L	2.88
E10M	3.02

Variant	protein stability index
E10P	2.75
E10S	2.96
E10Q	2.03
E10H	2.69
E10C	2.48
E10A	3.65
E10G	2.42
E10N	1.99
E10K	2.76
E10R	4.24
E10T	2.76
N19D	1.56
N19V	2.24
N19R	2.56
N19T	2.98
N19K	2.22
N19L	3.66
N19Q	1.81
N19G	3.21
N19W	3.01
N19Y	3.05
N19C	4.21
N19P	2.62
N19M	3.78
N19E	2.44
